Test results taken from patent publication US20240116985A1, “STAPLED PEPTIDES AND METHODS THEREOF” (priority 2020, published 2024).
Starred links: 1 amine or outer side, 2 acyl side, 3 side chain; linkers in the order of their positions; H or OH if unused. Positions of bridges follow the written chain, without caps; N, C: chain ends. Non-standard residues stand in square brackets, D forms with d. Primed or numbered codes have the meaning given here. PyrS2″ = (S)-3-amino-1-((pent-4-en-1-yloxy)carbonyl)pyrrolidine-3-carboxylic acid (stapling residue), C=CCCCOC(=O)N1CC[C@@](N[*:1])(C(=O)[*:2])C1; B5(4) = 2,2-bis(4-pentenyl)glycine = 2-amino-2-(pent-4-en-1-yl)hept-6-enoic acid (stitching residue), C=CCCCC(CCCC=C)(N[*:1])C(=O)[*:2]; B5(5) = 2,2-bis(4-pentenyl)glycine, 2-amino-2-(pent-4-en-1-yl)hept-6-enoic acid (stitching residue), C=CCCCC(CCCC=C)(N[*:1])C(=O)[*:2]; (NMe2)GlnR(3) = [NMe2]GlnR, N5,N5-dimethyl-L-glutamine, CN(C)C(=O)CC[C@H](N[*:1])C(=O)[*:2]; B5(3) = 2,2-bis(4-pentenyl)glycine (stitching residue), C=CCCCC(CCCC=C)(N[*:1])C(=O)[*:2]; Me2Asn = listed as N4-methyl-L-asparagine, CNC(=O)C[C@H](N[*:1])C(=O)[*:2]; Phe(3-CF3) = N[C@@H](Cc1cccc(C(F)(F)F)c1)C(=O)O; Phe(3-COOH) = N[C@@H](Cc1cccc(C(=O)O)c1)C(=O)O; 2F3MeF = Cc1cccc(C[C@H](N[*:1])C(=O)[*:2])c1F; Phe(2-CF3) = N[C@@H](Cc1ccccc1C(F)(F)F)C(=O)O; Phe(2-Cl) = N[C@@H](Cc1ccccc1Cl)C(=O)O; Bta = N[C@@H](Cc1csc2ccccc12)C(=O)O; Lys(iPr) = CC(C)NCCCC[C@H](N)C(=O)O; hTyr = N[C@@H](CCc1ccc(O)cc1)C(=O)O; αAllylPro = C=CC[C@@]1(C(=O)O)CCCN1; tBuAla = CC(C)(C)C[C@H](N)C(=O)O; 3Thi = N[C@@H](Cc1ccsc1)C(=O)O; Cha = N[C@@H](CC1CCCCC1)C(=O)O; hSer = N[C@@H](CCO)C(=O)O; Nle = CCCC[C@H](N)C(=O)O; Aib = CC(C)(N)C(=O)O

B1: I-1268 (peptide)
peptide: Ac-[αAllylPro]D[tBuAla][B5(3)]DTAA[Phe(3-CF3)]T[PyrS2″]F[Bta]S-NH2
modifications: staple 1-4; staple 4-11 (inferred); not fully specified; printed as Ac-PL3-Asp-Npg-B5-Asp-Thr-Ala-Ala-3F3MeF-Thr-PyrS2-Phe-BztA-Ser-NH2

target: full-length beta-Catenin (Uniprot ID P35222) (Homo sapiens (Human)) (UniProt P35222); experiment: fluorescence polarization competition; 10 nM full-length beta-catenin, 10 nM 5FAM-TCF4(10-53) probe
Target sequence in this assay (P35222 whole entry): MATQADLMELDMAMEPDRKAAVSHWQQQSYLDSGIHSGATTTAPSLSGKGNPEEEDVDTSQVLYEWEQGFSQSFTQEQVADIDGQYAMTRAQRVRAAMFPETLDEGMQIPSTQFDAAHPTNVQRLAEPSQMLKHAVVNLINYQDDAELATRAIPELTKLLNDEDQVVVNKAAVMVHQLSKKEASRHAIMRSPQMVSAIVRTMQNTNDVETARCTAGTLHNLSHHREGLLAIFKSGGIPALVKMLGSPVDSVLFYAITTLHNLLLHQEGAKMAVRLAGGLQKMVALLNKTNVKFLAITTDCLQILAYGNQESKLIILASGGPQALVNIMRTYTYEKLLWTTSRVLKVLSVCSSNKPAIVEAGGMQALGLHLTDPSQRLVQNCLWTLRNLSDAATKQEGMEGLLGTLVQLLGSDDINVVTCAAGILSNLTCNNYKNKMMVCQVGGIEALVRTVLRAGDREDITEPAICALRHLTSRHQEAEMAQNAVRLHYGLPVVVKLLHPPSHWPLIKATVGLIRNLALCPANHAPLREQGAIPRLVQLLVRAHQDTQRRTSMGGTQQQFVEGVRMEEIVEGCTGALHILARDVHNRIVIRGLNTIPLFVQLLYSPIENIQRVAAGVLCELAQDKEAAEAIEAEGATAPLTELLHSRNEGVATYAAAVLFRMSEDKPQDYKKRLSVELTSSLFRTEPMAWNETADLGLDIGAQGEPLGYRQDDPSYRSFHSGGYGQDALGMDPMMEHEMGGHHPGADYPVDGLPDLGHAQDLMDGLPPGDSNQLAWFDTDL

Question: Which IC50 does the source give for Ac-[αAllylPro]D[tBuAla][B5(4)]D[Phe(3-COOH)]SAFL[PyrS2″][3Thi][Bta][tBuAla]-NH2 (staple 1-4, 4-11) [I-2195] here?
Answer: The IC50 was 62 nM.

Question: How did the IC50 turn out when Ac-[αAllylPro]D[tBuAla][B5(4)]D[Phe(3-COOH)][Me2Asn]AFL[PyrS2″][3Thi][Bta][tBuAla]-NH2 (staple 1-4, 4-11) [I-2196] was run?
Answer: The IC50 was 41 nM.

Question: Which IC50 does the source give for Ac-[αAllylPro]D[tBuAla][B5(4)]D[Phe(3-COOH)]AAFF[PyrS2″][Phe(2-CF3)][Bta][Me2Gln]-NH2 (staple 1-4, 4-11) [I-2534] here?
Answer: The IC50 was 21 nM.

Question: For Ac-[αAllylPro]D[tBuAla][B5(4)]D[Phe(3-COOH)]AAFL[PyrS2″][Phe(2-CF3)][Bta][MorphGln]-NH2 (staple 1-4, 4-11) [I-2541], which IC50 is on record?
Answer: Its IC50 is 21 nM.

Question: Which IC50 does the source give for Ac-[αAllylPro]D[tBuAla][B5(4)]D[Phe(3-COOH)]AAFF[PyrS2″][Phe(2-CF3)][Bta][MorphGln]-NH2 (staple 1-4, 4-11) [I-2543] here?
Answer: Its IC50 is 37 nM.

Question: For Ac-[αAllylPro]D[tBuAla][B5(4)]D[Phe(3-COOH)][Aib]AF[Nle][PyrS2″][3Thi][Bta][(NMe2)GlnR(3)]-NH2 (staple 1-4, 4-11) [I-2551], which IC50 is on record?
Answer: Its IC50 is 8 nM.

Question: Which IC50 does the source give for Ac-[αAllylPro]D[tBuAla][B5(4)]D[Phe(3-COOH)][Aib]AF[Nle][PyrS2″][3Thi][Bta][(NHEt)GlnR]-NH2 (staple 1-4, 4-11) [I-2552] here?
Answer: The IC50 was 12 nM.

target: full-length beta-Catenin (Uniprot ID P35222) (Homo sapiens (Human)) (UniProt P35222); experiment: fluorescence polarization competition; full-length beta-catenin + 5FAM-TCF4(10-53) probe
Target sequence in this assay (P35222 whole entry): as above

Question: How did the EC50 turn out when B1 was run?
Answer: The EC50 was 198 nM.

target: full-length beta-Catenin (Uniprot ID P35222) (Homo sapiens (Human)) (UniProt P35222); experiment: fluorescence polarization competition, 5FAM-TCF4 10-53 probe on full-length beta-catenin
Target sequence in this assay (P35222 2-781 limits assumed): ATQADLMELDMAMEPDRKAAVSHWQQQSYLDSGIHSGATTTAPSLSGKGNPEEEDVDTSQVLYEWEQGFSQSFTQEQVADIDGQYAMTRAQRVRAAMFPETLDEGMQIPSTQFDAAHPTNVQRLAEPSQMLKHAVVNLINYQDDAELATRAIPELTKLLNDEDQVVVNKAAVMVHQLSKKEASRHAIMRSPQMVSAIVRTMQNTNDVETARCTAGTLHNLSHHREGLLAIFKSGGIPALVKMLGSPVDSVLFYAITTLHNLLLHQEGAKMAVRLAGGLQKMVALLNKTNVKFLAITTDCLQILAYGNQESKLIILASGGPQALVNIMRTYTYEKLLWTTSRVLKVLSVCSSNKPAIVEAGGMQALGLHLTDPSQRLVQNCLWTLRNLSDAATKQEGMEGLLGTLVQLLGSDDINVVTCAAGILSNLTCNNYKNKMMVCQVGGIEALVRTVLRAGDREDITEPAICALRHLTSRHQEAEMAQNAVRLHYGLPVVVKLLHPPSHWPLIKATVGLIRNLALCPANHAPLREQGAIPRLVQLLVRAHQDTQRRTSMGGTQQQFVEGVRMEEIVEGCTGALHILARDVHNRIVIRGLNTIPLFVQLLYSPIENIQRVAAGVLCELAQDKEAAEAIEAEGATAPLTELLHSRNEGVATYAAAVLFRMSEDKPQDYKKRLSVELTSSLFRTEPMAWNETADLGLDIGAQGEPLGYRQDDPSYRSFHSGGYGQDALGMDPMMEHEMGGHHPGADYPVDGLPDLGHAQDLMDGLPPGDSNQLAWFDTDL

Question: Ac-[αAllylPro]D[Cha][B5(5)]DDAAF[Cha][PyrS2″][Phe(2-Cl)][Bta]S-NH2 (staple 1-4, 4-11) [I-1113] was tested. Which EC50 did it give?
Answer: Its EC50 is 64 nM.

Question: With Ac-[αAllylPro]D[Cha][B5(4)]DDLLFS[PyrS2″][Phe(2-Cl)][Bta]Q-NH2 (staple 1-4, 4-11) [I-1149] as the binder, how does the EC50 read?
Answer: The EC50 was 70 nM.

target: full-length beta-Catenin (Uniprot ID P35222) (Homo sapiens (Human)) (UniProt P35222); experiment: fluorescence polarization competition; competitor 5FAM-TCF4(10-53) probe on full-length beta-catenin
Target sequence in this assay (P35222 whole entry): as the sequence (P35222 whole entry) above

Question: Which IC50 does the source give for Ac-[αAllylPro]D[tBuAla][B5(4)]D[Phe(3-COOH)]A[dA]FL[PyrS2″][2F3MeF][Bta]A-NH2 (staple 1-4, 4-11; also: earlier-eluting HPLC isomer composition) [I-2098] here?
Answer: Its IC50 is 260 nM.

Question: With Ac-[αAllylPro]D[tBuAla][B5(5)]D[Phe(3-COOH)]A[dA]FL[PyrS2″][2F3MeF][Bta]A-NH2 (staple 1-4, 4-11; also: later eluting HPLC isomer) [I-2099] as the binder, how does the IC50 read?
Answer: The IC50 was 325 nM.

Question: How did the IC50 turn out when Ac-[αAllylPro]D[tBuAla][B5(3)]D[Phe(3-COOH)]A[dA]FL[PyrS2″][2F3MeF][Bta][dA]-NH2 (staple 1-4, 4-11) [I-2101] was run?
Answer: Its IC50 is 424 nM.

Question: Ac-[αAllylPro]N[Cha][B5(4)]DQ[Lys(iPr)]AF[Lys(iPr)][PyrS2″]F[Bta][hSer]-NH2 (staple 1-4, 4-11) [I-2102] was tested. Which IC50 did it give?
Answer: The IC50 was 273 nM.

Question: With Ac-[αAllylPro]N[Cha][B5(4)]DQ[Lys(iPr)]AFN[PyrS2″]F[Bta]H-NH2 (staple 1-4, 4-11) [I-2109] as the binder, how does the IC50 read?
Answer: Its IC50 is 136 nM.

Question: How did the IC50 turn out when Ac-[αAllylPro]N[Cha][B5(4)]DQ[Lys(iPr)]AFN[PyrS2″]F[Bta]K-NH2 (staple 1-4, 4-11) [I-2110] was run?
Answer: The IC50 was 88 nM.

Question: Ac-[αAllylPro]N[Cha][B5(4)]DQ[Lys(iPr)]AFN[PyrS2″]F[Bta]N-NH2 (staple 1-4, 4-11) [I-2111] was tested. Which IC50 did it give?
Answer: Its IC50 is 180 nM.

Question: For Ac-[αAllylPro]N[Cha][B5(3)]DQ[Lys(iPr)]AFN[PyrS2″]F[Bta]T-NH2 (staple 1-4, 4-11) [I-2112], which IC50 is on record?
Answer: Its IC50 is 501 nM.

Question: For Ac-[αAllylPro]N[Cha][B5(3)]DQ[Lys(iPr)]AFN[PyrS2″]F[Bta]Q-NH2 (staple 1-4, 4-11) [I-2113], which IC50 is on record?
Answer: Its IC50 is 164 nM.

Question: For Ac-[αAllylPro]D[tBuAla][B5(4)]D[hTyr]AA[Phe(3-COOH)]N[PyrS2″][3Thi][Bta]Q-NH2 (staple 1-4, 4-11; also: earlier eluting HPLC isomer composition) [I-2114], which IC50 is on record?
Answer: Its IC50 is 32 nM.

Question: With Ac-[αAllylPro]D[tBuAla][B5(4)]D[hTyr]AA[Phe(3-COOH)]N[PyrS2″][3Thi][Bta]Q-NH2 (staple 1-4, 4-11; also: later eluting HPLC isomer composition) [I-2115] as the binder, how does the IC50 read?
Answer: Its IC50 is 29 nM.

Question: With Ac-[αAllylPro]D[tBuAla][B5(4)]D[hTyr]AA[Phe(3-COOH)][hSer][PyrS2″][3Thi][Bta]Q-NH2 (staple 1-4, 4-11; also: earlier eluting HPLC isomer composition) [I-2116] as the binder, how does the IC50 read?
Answer: The IC50 was 19 nM.

Question: How did the IC50 turn out when Ac-[αAllylPro]D[tBuAla][B5(4)]D[hTyr]AA[Phe(3-COOH)][hSer][PyrS2″][3Thi][Bta]Q-NH2 (staple 1-4, 4-11; also: later eluting HPLC isomer composition) [I-2117] was run?
Answer: Its IC50 is 19 nM.

Question: For Ac-[αAllylPro]D[tBuAla][B5(4)]DHAA[Phe(3-COOH)]N[PyrS2″][3Thi][Bta]Q-NH2 (staple 1-4, 4-11; also: earlier eluting HPLC isomer composition) [I-2118], which IC50 is on record?
Answer: The IC50 was 21 nM.

Question: Ac-[αAllylPro]D[tBuAla][B5(4)]DHAA[Phe(3-COOH)]N[PyrS2″][3Thi][Bta]Q-NH2 (staple 1-4, 4-11; also: later eluting HPLC isomer composition) [I-2119] was tested. Which IC50 did it give?
Answer: The IC50 was 29 nM.

Question: For Ac-[αAllylPro]D[tBuAla][B5(4)]DHAA[Phe(3-COOH)]L[PyrS2″][3Thi][Bta]Q-NH2 (staple 1-4, 4-11; also: earlier eluting HPLC isomer composition) [I-2122], which IC50 is on record?
Answer: Its IC50 is 12 nM.

target: full-length beta-Catenin (Uniprot ID P35222) (Homo sapiens (Human)) (UniProt P35222); experiment: fluorescence polarization competition vs 5FAM-TCF4(10-53) on full-length beta-catenin
Target sequence in this assay (P35222 2-781 limits assumed): as the sequence (P35222 2-781 limits assumed) above

Question: With Ac-[αAllylPro]D[Cha][B5(4)]DDLLFS[PyrS2″][Phe(2-Cl)][Bta]Q-NH2 (staple 1-4, 4-11) [I-1149] as the binder, how does the IC50 read?
Answer: The IC50 was 70 nM.

target: full-length beta-Catenin (Uniprot ID P35222) (Homo sapiens (Human)) (UniProt P35222); experiment: fluorescence polarization competition; displacement of 5FAM-TCF4(10-53) from full-length beta-catenin
Target sequence in this assay (P35222 whole entry): as the sequence (P35222 whole entry) above

Question: For Ac-[αAllylPro]D[Cha][B5(5)]DDAAF[Cha][PyrS2″][Phe(2-Cl)][Bta]S-NH2 (staple 1-4, 4-11) [I-1113], which IC50 is on record?
Answer: Its IC50 is 64 nM.
